This note sets out measurements from patent US20230235012A1 (ALPINE IMMUNE SCIENCES, published 2023).

Assay [1] concerns the target T1, human CD28, full-length, expressed on transfected Expi293 cells (human, UniProt P10747 19-220).
T1 construct: whole, on cells
Briefly: flow cytometry, 100 nM, Expi293 cells with human CD28.

Assay [2] addresses T2, human ICOS, full-length, expressed on transfected Expi293 cells (human, UniProt Q9Y6W8 21-199).
T2 construct: whole, on cells
T2 sequence (looked up): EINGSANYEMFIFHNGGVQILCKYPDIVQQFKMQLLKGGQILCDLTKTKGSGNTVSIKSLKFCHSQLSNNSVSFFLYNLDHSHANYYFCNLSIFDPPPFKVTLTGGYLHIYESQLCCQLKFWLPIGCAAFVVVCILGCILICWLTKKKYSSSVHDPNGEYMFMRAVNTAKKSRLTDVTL
Briefly: flow cytometry, 100 nM, Expi293 cells with human ICOS. Background: A flow cytometer gives signals particle by particle.

For assay [3], the target named is T3, human CTLA-4, full-length, expressed on transfected Expi293 cells (human, UniProt P16410 36-223).
T3 construct: whole, on cells
Briefly: flow cytometry, 100 nM, Expi293 cells with human CTLA-4.

T3 sequence (P16410 36-223): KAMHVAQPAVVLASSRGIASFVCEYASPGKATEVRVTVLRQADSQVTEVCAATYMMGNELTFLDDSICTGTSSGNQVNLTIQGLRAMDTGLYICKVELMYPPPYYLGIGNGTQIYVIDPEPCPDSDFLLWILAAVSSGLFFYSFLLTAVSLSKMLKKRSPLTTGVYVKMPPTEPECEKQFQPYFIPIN

B1: variant ICOSL IgV-Fc fusion N52Q/N57S/Q100A (Fc fusion)
chain: DTQEKEVRAMVGSDVELSCACPEGSRFDLNDVYVYWQTSESKTVVTYHIPQQSSLESVDSRYRNRALMSPAGMLRGDFSLRLFNVTPQDEQKFHCLVLSASLGFQEVLSVEVTLHVAANFSVGSGGGGSEPKSSDKTHTCPPCPAPEAEGAPSVFLFPPKPKDTLMISRTPEVTCVVVDVSHEDPEVKFNWYVDGVEVHNAKTKPREEQYNSTYRVVSVLTVLHQDWLNGKEYKCKVSNKALPAPIEKTISKAKGQPREPQVYTLPPSREEMTKNQVSLTCLVKGFYPSDIAVEWESNGQPENNYKTTPPVLDSDGSFFLYSKLTVDKSRWQQGNVFSCSVMHEALHNHYTQKSLSLSPG
For B1, the MFI in assay [1] came out at 91300 MFI; in assay [2], 263000 MFI; in assay [3] it was 315000 MFI. Further, the results for the “MFI ratio to WT (ΔWT)” value in assay [1], in assay [2] and in assay [3] were 4.1 fold, 1.24 fold and 0.95 fold, respectively.

B2: variant ICOSL IgV-Fc fusion N52R/N57L/Q100S (Fc fusion)
chain: DTQEKEVRAMVGSDVELSCACPEGSRFDLNDVYVYWQTSESKTVVTYHIPQRSSLELVDSRYRNRALMSPAGMLRGDFSLRLFNVTPQDEQKFHCLVLSSSLGFQEVLSVEVTLHVAANFSVGSGGGGSEPKSSDKTHTCPPCPAPEAEGAPSVFLFPPKPKDTLMISRTPEVTCVVVDVSHEDPEVKFNWYVDGVEVHNAKTKPREEQYNSTYRVVSVLTVLHQDWLNGKEYKCKVSNKALPAPIEKTISKAKGQPREPQVYTLPPSREEMTKNQVSLTCLVKGFYPSDIAVEWESNGQPENNYKTTPPVLDSDGSFFLYSKLTVDKSRWQQGNVFSCSVMHEALHNHYTQKSLSLSPG
As to B2, the MFI in assay [1] came to 112000 MFI; in assay [2] it was 231000 MFI; in assay [3], 289000 MFI. Besides, the “MFI ratio to WT (ΔWT)” value in assay [1] stood at 5 fold; in assay [2] it was 1.09 fold; in assay [3], 0.88 fold.

B3: variant ICOSL IgV-Fc fusion N52R/N57F/Q100T (Fc fusion)
chain: DTQEKEVRAMVGSDVELSCACPEGSRFDLNDVYVYWQTSESKTVVTYHIPQRSSLEFVDSRYRNRALMSPAGMLRGDFSLRLFNVTPQDEQKFHCLVLSTSLGFQEVLSVEVTLHVAANFSVGSGGGGSEPKSSDKTHTCPPCPAPEAEGAPSVFLFPPKPKDTLMISRTPEVTCVVVDVSHEDPEVKFNWYVDGVEVHNAKTKPREEQYNSTYRVVSVLTVLHQDWLNGKEYKCKVSNKALPAPIEKTISKAKGQPREPQVYTLPPSREEMTKNQVSLTCLVKGFYPSDIAVEWESNGQPENNYKTTPPVLDSDGSFFLYSKLTVDKSRWQQGNVFSCSVMHEALHNHYTQKSLSLSPG
B3: the MFI stood at 127000 MFI in assay [1], 270000 MFI in assay [2] and 358000 MFI in assay [3]. Moreover, the “MFI ratio to WT (ΔWT)” value in assay [1] turned out to be 5.7 fold; in assay [2], 1.27 fold; in assay [3] it was 1.08 fold.

B4: variant ICOSL IgV-Fc fusion N52S/N57H/Q100E (Fc fusion)
chain: DTQEKEVRAMVGSDVELSCACPEGSRFDLNDVYVYWQTSESKTVVTYHIPQSSSLEHVDSRYRNRALMSPAGMLRGDFSLRLFNVTPQDEQKFHCLVLSESLGFQEVLSVEVTLHVAANFSVGSGGGGSEPKSSDKTHTCPPCPAPEAEGAPSVFLFPPKPKDTLMISRTPEVTCVVVDVSHEDPEVKFNWYVDGVEVHNAKTKPREEQYNSTYRVVSVLTVLHQDWLNGKEYKCKVSNKALPAPIEKTISKAKGQPREPQVYTLPPSREEMTKNQVSLTCLVKGFYPSDIAVEWESNGQPENNYKTTPPVLDSDGSFFLYSKLTVDKSRWQQGNVFSCSVMHEALHNHYTQKSLSLSPG
As to B4, the MFI in assay [1] stood at 117000 MFI; in assay [2], 258000 MFI; in assay [3], 302000 MFI. Further, the “MFI ratio to WT (ΔWT)” value in assay [1] is 5.2 fold; in assay [2], 1.22 fold; in assay [3] it was 0.92 fold.

B5: variant ICOSL IgV-Fc fusion N52R/N57Y/Q100S (Fc fusion)
chain: DTQEKEVRAMVGSDVELSCACPEGSRFDLNDVYVYWQTSESKTVVTYHIPQRSSLEYVDSRYRNRALMSPAGMLRGDFSLRLFNVTPQDEQKFHCLVLSSSLGFQEVLSVEVTLHVAANFSVGSGGGGSEPKSSDKTHTCPPCPAPEAEGAPSVFLFPPKPKDTLMISRTPEVTCVVVDVSHEDPEVKFNWYVDGVEVHNAKTKPREEQYNSTYRVVSVLTVLHQDWLNGKEYKCKVSNKALPAPIEKTISKAKGQPREPQVYTLPPSREEMTKNQVSLTCLVKGFYPSDIAVEWESNGQPENNYKTTPPVLDSDGSFFLYSKLTVDKSRWQQGNVFSCSVMHEALHNHYTQKSLSLSPG
Take B5: the MFI in assay [1] stood at 133000 MFI; in assay [2], 229000 MFI; in assay [3], 504000 MFI. The “MFI ratio to WT (ΔWT)” value came to 6 fold in assay [1], 1.08 fold in assay [2] and 1.53 fold in assay [3].

B6: variant ICOSL IgV-Fc fusion N52S/N57M/Q100S (Fc fusion)
chain: DTQEKEVRAMVGSDVELSCACPEGSRFDLNDVYVYWQTSESKTVVTYHIPQSSSLEMVDSRYRNRALMSPAGMLRGDFSLRLFNVTPQDEQKFHCLVLSSSLGFQEVLSVEVTLHVAANFSVGSGGGGSEPKSSDKTHTCPPCPAPEAEGAPSVFLFPPKPKDTLMISRTPEVTCVVVDVSHEDPEVKFNWYVDGVEVHNAKTKPREEQYNSTYRVVSVLTVLHQDWLNGKEYKCKVSNKALPAPIEKTISKAKGQPREPQVYTLPPSREEMTKNQVSLTCLVKGFYPSDIAVEWESNGQPENNYKTTPPVLDSDGSFFLYSKLTVDKSRWQQGNVFSCSVMHEALHNHYTQKSLSLSPG
Take B6: the figures for the MFI in assay [1], in assay [2] and in assay [3] were 134000 MFI, 312000 MFI and 228000 MFI, respectively. The results for the “MFI ratio to WT (ΔWT)” value in assay [1], in assay [2] and in assay [3] were 6 fold, 1.47 fold and 0.69 fold, respectively.

B7: variant ICOSL IgV-Fc fusion N52R/N57W/Q100K (Fc fusion)
chain: DTQEKEVRAMVGSDVELSCACPEGSRFDLNDVYVYWQTSESKTVVTYHIPQRSSLEWVDSRYRNRALMSPAGMLRGDFSLRLFNVTPQDEQKFHCLVLSKSLGFQEVLSVEVTLHVAANFSVGSGGGGSEPKSSDKTHTCPPCPAPEAEGAPSVFLFPPKPKDTLMISRTPEVTCVVVDVSHEDPEVKFNWYVDGVEVHNAKTKPREEQYNSTYRVVSVLTVLHQDWLNGKEYKCKVSNKALPAPIEKTISKAKGQPREPQVYTLPPSREEMTKNQVSLTCLVKGFYPSDIAVEWESNGQPENNYKTTPPVLDSDGSFFLYSKLTVDKSRWQQGNVFSCSVMHEALHNHYTQKSLSLSPG
For the molecule B7, the figures for the MFI in assay [1], in assay [2] and in assay [3] were 131000 MFI, 349000 MFI and 477000 MFI, respectively. In addition, the “MFI ratio to WT (ΔWT)” value was 5.9 fold in assay [1], 1.65 fold in assay [2] and 1.44 fold in assay [3].

B8: variant ICOSL IgV-Fc fusion N52S/N57L/Q100S (Fc fusion)
chain: DTQEKEVRAMVGSDVELSCACPEGSRFDLNDVYVYWQTSESKTVVTYHIPQSSSLELVDSRYRNRALMSPAGMLRGDFSLRLFNVTPQDEQKFHCLVLSSSLGFQEVLSVEVTLHVAANFSVGSGGGGSEPKSSDKTHTCPPCPAPEAEGAPSVFLFPPKPKDTLMISRTPEVTCVVVDVSHEDPEVKFNWYVDGVEVHNAKTKPREEQYNSTYRVVSVLTVLHQDWLNGKEYKCKVSNKALPAPIEKTISKAKGQPREPQVYTLPPSREEMTKNQVSLTCLVKGFYPSDIAVEWESNGQPENNYKTTPPVLDSDGSFFLYSKLTVDKSRWQQGNVFSCSVMHEALHNHYTQKSLSLSPG
Regarding B8, the MFI stood at 108000 MFI in assay [1], 269000 MFI in assay [2] and 197000 MFI in assay [3]. Also, the “MFI ratio to WT (ΔWT)” value amounted to 4.8 fold in assay [1], 1.27 fold in assay [2] and 0.6 fold in assay [3].

B9: variant ICOSL IgV-Fc fusion N52R/N57L/Q100A (Fc fusion)
chain: DTQEKEVRAMVGSDVELSCACPEGSRFDLNDVYVYWQTSESKTVVTYHIPQRSSLELVDSRYRNRALMSPAGMLRGDFSLRLFNVTPQDEQKFHCLVLSASLGFQEVLSVEVTLHVAANFSVGSGGGGSEPKSSDKTHTCPPCPAPEAEGAPSVFLFPPKPKDTLMISRTPEVTCVVVDVSHEDPEVKFNWYVDGVEVHNAKTKPREEQYNSTYRVVSVLTVLHQDWLNGKEYKCKVSNKALPAPIEKTISKAKGQPREPQVYTLPPSREEMTKNQVSLTCLVKGFYPSDIAVEWESNGQPENNYKTTPPVLDSDGSFFLYSKLTVDKSRWQQGNVFSCSVMHEALHNHYTQKSLSLSPG
B9: the results for the MFI in assay [1], in assay [2] and in assay [3] were 119000 MFI, 308000 MFI and 403000 MFI, respectively. Also, the “MFI ratio to WT (ΔWT)” value came out at 5.3 fold in assay [1], 1.45 fold in assay [2] and 1.22 fold in assay [3].

B10: variant ICOSL IgV-Fc fusion N52R/N57Y/Q100R (Fc fusion)
chain: DTQEKEVRAMVGSDVELSCACPEGSRFDLNDVYVYWQTSESKTVVTYHIPQRSSLEYVDSRYRNRALMSPAGMLRGDFSLRLFNVTPQDEQKFHCLVLSRSLGFQEVLSVEVTLHVAANFSVGSGGGGSEPKSSDKTHTCPPCPAPEAEGAPSVFLFPPKPKDTLMISRTPEVTCVVVDVSHEDPEVKFNWYVDGVEVHNAKTKPREEQYNSTYRVVSVLTVLHQDWLNGKEYKCKVSNKALPAPIEKTISKAKGQPREPQVYTLPPSREEMTKNQVSLTCLVKGFYPSDIAVEWESNGQPENNYKTTPPVLDSDGSFFLYSKLTVDKSRWQQGNVFSCSVMHEALHNHYTQKSLSLSPG
As for B10, the MFI in assay [1] turned out to be 3280 MFI; in assay [2], 6100 MFI; in assay [3], 4270 MFI. Further, the “MFI ratio to WT (ΔWT)” value in assay [1] is 0.1 fold; in assay [2], 0.03 fold; in assay [3], 0.01 fold.

B11: variant ICOSL IgV-Fc fusion N52S/N57Y/Q100M (Fc fusion)
chain: DTQEKEVRAMVGSDVELSCACPEGSRFDLNDVYVYWQTSESKTVVTYHIPQSSSLEYVDSRYRNRALMSPAGMLRGDFSLRLFNVTPQDEQKFHCLVLSMSLGFQEVLSVEVTLHVAANFSVGSGGGGSEPKSSDKTHTCPPCPAPEAEGAPSVFLFPPKPKDTLMISRTPEVTCVVVDVSHEDPEVKFNWYVDGVEVHNAKTKPREEQYNSTYRVVSVLTVLHQDWLNGKEYKCKVSNKALPAPIEKTISKAKGQPREPQVYTLPPSREEMTKNQVSLTCLVKGFYPSDIAVEWESNGQPENNYKTTPPVLDSDGSFFLYSKLTVDKSRWQQGNVFSCSVMHEALHNHYTQKSLSLSPG
On to B11, for which the results for the MFI in assay [1], in assay [2] and in assay [3] were 157000 MFI, 303000 MFI and 395000 MFI, respectively. The “MFI ratio to WT (ΔWT)” value in assay [1] came to 7 fold; in assay [2], 1.43 fold; in assay [3] it was 1.2 fold.
